According to paper PMC13178787 (Nature, 2024):

B1: β-sarcoglycan (natural protein, mouse (endogenous in skeletal muscle), UniProt P82349 1-320, looked up)
chain: MAAAAAAAAATEQQGSNGPVKKSMREKAVERRNVNKEHNSNFKAGYIPIDEDRLHKTGLRGRKGNLAICVIVLLFILAVINLLITLVIWAVIRIGPNGCDSMEFHESGLLRFKQVSDMGVIHPLYKSTVGGRRNENLVITGNNQPIVFQQGTTKLSVEKNKTSITSDIGMQFFDPRTHNILFSTDYETHEFHLPSGVKSLNVQKASTERITSNATSDLNIKVDGRAIVRGNEGVFIMGKTIEFHMGGDVELKAENSIILNGTVMVSPTRLPSSSSGDQSGSGDWVRYKLCMCADGTLFKVQVTGHNMGCQVSDNPCGNTH
modifications: glycosylated at N160, N213, N260
B2: β-dystroglycan (natural protein, mouse (endogenous in skeletal muscle), UniProt Q62165 652-893, looked up)
chain: SIVVEWTNNTLPLEPCPKEQIIGLSRRIADENGKPRPAFSNALEPDFKALSIAVTGSGSCRHLQFIPVAPPSPGSSAAPATEVPDRDPEKSSEDDVYLHTVIPAVVVAAILLIAGIIAMICYRKKRKGKLTLEDQATFIKKGVPIIFADELDDSKPPPSSSMPLILQEEKAPLPPPEYPNQSMPETTPLNQDTVGEYTPLRDEDPNAPPYQPPPPFTAPMEGKGSRPKNMTPYRSPPPYVPP
modifications: glycosylated at N659

Legend:
dystrophin = dystrophin (mouse (endogenous in skeletal muscle), UniProt P11531 1-3678); test: cryo-EM structure
Chain of dystrophin (P11531 whole entry): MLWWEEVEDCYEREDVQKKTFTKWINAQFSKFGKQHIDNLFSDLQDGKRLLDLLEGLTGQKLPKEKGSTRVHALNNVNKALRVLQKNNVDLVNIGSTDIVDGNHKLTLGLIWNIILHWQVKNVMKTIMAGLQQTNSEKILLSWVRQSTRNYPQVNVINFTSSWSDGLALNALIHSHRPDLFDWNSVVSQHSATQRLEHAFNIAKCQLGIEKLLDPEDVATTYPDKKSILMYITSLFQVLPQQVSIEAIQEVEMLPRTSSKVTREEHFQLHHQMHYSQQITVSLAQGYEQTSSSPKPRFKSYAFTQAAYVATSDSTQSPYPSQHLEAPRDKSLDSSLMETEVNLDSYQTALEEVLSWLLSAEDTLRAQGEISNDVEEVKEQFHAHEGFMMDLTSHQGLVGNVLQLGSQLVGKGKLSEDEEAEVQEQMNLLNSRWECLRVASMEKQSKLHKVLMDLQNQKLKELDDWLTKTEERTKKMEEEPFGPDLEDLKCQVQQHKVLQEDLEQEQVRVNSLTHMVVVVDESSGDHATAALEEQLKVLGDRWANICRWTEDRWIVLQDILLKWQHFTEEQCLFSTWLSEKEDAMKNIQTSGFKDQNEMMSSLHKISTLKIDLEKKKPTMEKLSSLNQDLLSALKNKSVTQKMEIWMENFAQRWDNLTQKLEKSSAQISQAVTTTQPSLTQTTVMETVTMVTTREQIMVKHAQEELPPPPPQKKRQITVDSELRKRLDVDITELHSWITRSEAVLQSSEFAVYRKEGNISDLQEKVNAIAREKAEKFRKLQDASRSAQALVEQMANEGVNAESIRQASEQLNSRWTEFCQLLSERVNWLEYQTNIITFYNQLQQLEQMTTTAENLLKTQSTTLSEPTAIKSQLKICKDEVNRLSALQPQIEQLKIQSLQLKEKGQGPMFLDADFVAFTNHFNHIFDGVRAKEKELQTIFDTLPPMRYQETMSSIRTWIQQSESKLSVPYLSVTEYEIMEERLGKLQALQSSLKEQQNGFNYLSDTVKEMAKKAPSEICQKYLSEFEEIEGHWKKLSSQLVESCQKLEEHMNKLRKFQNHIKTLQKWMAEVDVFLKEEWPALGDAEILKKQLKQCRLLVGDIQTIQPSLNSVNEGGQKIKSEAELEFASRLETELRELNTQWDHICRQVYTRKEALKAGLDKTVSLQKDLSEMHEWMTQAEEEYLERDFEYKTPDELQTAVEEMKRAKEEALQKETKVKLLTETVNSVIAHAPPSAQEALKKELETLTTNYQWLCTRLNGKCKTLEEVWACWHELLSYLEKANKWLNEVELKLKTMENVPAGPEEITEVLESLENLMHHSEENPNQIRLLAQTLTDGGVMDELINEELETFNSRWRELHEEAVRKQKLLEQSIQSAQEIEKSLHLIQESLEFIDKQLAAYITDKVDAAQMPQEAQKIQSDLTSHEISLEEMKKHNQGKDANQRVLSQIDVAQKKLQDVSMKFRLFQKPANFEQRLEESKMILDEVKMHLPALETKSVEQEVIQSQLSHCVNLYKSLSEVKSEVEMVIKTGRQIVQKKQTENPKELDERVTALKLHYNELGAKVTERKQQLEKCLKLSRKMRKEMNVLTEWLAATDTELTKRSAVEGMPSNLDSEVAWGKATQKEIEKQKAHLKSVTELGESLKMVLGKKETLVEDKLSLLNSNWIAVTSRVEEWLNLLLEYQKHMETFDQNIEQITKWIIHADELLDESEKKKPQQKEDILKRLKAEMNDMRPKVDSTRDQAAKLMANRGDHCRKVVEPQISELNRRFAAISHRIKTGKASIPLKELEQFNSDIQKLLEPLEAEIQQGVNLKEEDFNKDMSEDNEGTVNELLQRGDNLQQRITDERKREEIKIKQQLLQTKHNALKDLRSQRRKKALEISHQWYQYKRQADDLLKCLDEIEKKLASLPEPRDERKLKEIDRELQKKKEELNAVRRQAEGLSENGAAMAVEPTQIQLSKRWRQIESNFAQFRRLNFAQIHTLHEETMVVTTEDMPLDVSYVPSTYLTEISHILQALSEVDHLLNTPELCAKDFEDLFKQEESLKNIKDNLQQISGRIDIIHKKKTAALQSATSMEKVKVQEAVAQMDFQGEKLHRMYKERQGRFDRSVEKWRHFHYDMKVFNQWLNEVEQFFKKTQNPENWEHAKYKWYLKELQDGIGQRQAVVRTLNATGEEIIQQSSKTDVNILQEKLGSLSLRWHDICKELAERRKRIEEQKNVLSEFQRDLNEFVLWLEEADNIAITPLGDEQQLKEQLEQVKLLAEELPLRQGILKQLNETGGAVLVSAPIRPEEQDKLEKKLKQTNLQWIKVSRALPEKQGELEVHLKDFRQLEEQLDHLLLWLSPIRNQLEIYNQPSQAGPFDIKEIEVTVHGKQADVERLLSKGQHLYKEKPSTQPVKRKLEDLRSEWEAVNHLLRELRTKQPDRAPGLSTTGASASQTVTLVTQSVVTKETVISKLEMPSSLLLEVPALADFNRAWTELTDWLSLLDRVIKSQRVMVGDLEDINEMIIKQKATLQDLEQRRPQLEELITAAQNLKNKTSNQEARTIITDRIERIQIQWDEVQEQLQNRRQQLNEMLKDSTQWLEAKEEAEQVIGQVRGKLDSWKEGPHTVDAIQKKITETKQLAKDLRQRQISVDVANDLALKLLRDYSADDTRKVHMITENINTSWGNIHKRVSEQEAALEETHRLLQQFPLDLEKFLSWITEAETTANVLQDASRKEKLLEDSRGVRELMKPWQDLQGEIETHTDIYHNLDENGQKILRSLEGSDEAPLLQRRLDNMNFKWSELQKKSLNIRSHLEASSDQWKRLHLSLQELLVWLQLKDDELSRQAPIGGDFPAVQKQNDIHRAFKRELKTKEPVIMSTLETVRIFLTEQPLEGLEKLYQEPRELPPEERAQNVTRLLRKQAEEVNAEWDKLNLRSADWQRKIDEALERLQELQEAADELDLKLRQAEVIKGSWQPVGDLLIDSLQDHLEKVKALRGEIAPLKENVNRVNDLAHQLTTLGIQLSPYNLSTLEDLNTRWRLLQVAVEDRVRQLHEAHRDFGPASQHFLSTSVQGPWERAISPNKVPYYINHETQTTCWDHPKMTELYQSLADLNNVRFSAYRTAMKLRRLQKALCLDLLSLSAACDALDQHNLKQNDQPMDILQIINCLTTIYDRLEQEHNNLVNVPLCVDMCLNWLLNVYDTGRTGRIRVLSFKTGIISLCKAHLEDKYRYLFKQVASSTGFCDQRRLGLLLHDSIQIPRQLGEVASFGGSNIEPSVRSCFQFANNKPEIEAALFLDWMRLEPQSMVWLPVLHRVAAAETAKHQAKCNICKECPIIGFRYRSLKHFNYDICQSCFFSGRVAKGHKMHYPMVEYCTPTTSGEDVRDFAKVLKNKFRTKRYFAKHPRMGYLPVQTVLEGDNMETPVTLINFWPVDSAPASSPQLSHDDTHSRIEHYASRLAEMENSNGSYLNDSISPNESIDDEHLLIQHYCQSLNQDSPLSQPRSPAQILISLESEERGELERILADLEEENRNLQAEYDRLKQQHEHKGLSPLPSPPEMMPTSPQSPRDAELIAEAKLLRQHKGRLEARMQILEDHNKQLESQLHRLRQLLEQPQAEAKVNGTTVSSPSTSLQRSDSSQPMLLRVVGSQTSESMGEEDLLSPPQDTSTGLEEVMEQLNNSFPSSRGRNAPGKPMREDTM

[1] = molecular target: T1, GST-tagged dystrophin (3049–3299) (mouse, UniProt P11531 3049-3299); test: SEC
T1 sequence (looked up): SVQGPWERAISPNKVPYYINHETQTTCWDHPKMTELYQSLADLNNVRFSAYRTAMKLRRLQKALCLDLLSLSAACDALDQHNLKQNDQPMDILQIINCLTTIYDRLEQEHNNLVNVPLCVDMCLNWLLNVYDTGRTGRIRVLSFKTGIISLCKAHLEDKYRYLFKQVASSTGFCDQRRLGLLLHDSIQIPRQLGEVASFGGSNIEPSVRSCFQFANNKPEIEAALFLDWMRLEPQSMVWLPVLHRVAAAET

β-dystroglycan = molecular target: B2; test: cryo-EM structure
β-sarcoglycan = molecular target: B1; test: cryo-EM structure

binding result (dystrophin)	further results	Binder
binds		dystrobrevin (natural protein, mouse (endogenous in skeletal muscle), UniProt Q9D2N4 1-746, looked up) MIEDSGKRGNTMAERRQLFAEMRAQDLDRIRLSTYRTACKLRFVQKKCNLHLVDIWNVIEALRENALNNLDPNIELNVARLEAVLSTIFYQLNKRMPTTHQIHVEQSISLLLNFLLAAFDPEGHGKISVFAVKMALATLCGGKIMDKLRYIFSMISDSSGVMVYGRYDQFLREVLKLPTAVFEGPSFGYTEQSARSCFSQQKKVTLNGFLDTLMSDPPPQCLVWLPLLHRLANVENVFHPVECSYCHSESMMGFRYRCQQCHNYQLCQDCFWRGHAGGSHSNQHQMKEYTSWKSPAKKLTNALSKSLSCASSREPLHPMFPDQPEKPLNLAHIVPPRPVTSMNDTLFSHSVPSSGSPFITRSSPPKDSEVEQNKMLARAAPAFLKGRGIQYSLNVADRLADEHVLIGLYVNMLRNDPPCMLESSNRLDEEHRLIARYAARLAAESSSSQPTQQRSAPDISFTIDANKQQRQLIAELENKNREILQEIQRLRVEHEQASQPTPEKAQQNPTLLAELRLLRQRKDELEQRMSALQESRRELMVQLEGLMKLLKEEELKQGTQGASSPRSSPSHTISRPIPMPIRSASACPTPTHTPQDSLTGVGGDVQEAFAQSSRRNLRSDLLVAADSITNTMSSLVKELNSEVASETESTVDSEFSRPQFEDLAPSPTSEKAFLAQIHSRKPGYIHGGAASTTHGDMVPEDGDPYTQPEDGNYENESVRQLENELQLEEYLKQKLQDEAYQVSLQG
binds		B1
binds		B2
	binding result [1]: binds	6×His-tagged dystrobrevin (1–237) (domain or fragment, mouse, UniProt Q9D2N4 1-237, looked up) MIEDSGKRGNTMAERRQLFAEMRAQDLDRIRLSTYRTACKLRFVQKKCNLHLVDIWNVIEALRENALNNLDPNIELNVARLEAVLSTIFYQLNKRMPTTHQIHVEQSISLLLNFLLAAFDPEGHGKISVFAVKMALATLCGGKIMDKLRYIFSMISDSSGVMVYGRYDQFLREVLKLPTAVFEGPSFGYTEQSARSCFSQQKKVTLNGFLDTLMSDPPPQCLVWLPLLHRLANVENV
	binding result (β-dystroglycan): binds	sarcospan (natural protein, mouse (endogenous in skeletal muscle), UniProt Q62147 1-216, looked up) MGRKPSPRAQELPEEEARTCCGCRFPLLLALLQLALGIAVTVLGFLMASISPSLLVRDTPFWAGSIVCVVAYLGLFMLCVSYQVDERTCVQFSMKVFYFLLSALGLMVCMLAVAFAAHHYSLLAQFTCETSLDSCQCKLPSSEPLSRAFVYRDVTDCTSVTGTFKLFLIIQMVLNLVCGLVCLLACFVMWKHRYQVFYVGVGLRSLMASDGQLPKA
	binding result (β-sarcoglycan): binds	δ-sarcoglycan (natural protein, mouse (endogenous in skeletal muscle), UniProt P82347 1-289, looked up, glycosylated at N108) MPQEQYSHHRSTMPSSEGPHIYKVGIYGWRKRCLYFFVLLLMILILVNLAMTIWILKVMNFTIDGMGNLRITEKGLKLEGDSEFLQPLYAKEIKSRPGNALYFKSARNVTVNILNDQTKVLTQLVTGPKAVEAYGKRFEVKTVSGKLLFSADDSEVVVGAERLRVLGAEGTVFPKSIETPNVRADPFKELRLESPTRSLVMEAPKGVEINAEAGNMEAICRSELRLESKDGEIKLDAAKIKLPRLPRGSYTPTGTRQKVFEVCVCANGRLFLSQAGTGSTCQINTSVCL
